Source: US20210115087A1 (UNIVERSITY OF ROCHESTER, published 2021)
*1 amine or outer side, *2 acyl side, *3 side chain or, on linkers, in order; H or OH if unused. Bridges are numbered along the chain shown (N, C = ends). Where no end group is shown, it is not given here. [ ]: non-standard residue; d: D form. The star is where a group is joined. O2beY = O-alkylated Tyr from O-2-bromoethyl-tyrosine, O-CH2CH2- thioether-linked to Cys, O=C([C@H](Cc1ccc(OCC[*:3])cc1)N[*:1])[*:2]; L‑5 = linker -CH2S(CH2)2SCH2-, C(CSC[*:2])SC[*:1]; Biotin = O=C1N[C@H]2[C@H](CS[C@H]2CCCCC(=O)*)N1; L‑9 = linker -CH2SCH2CH=CHCH2SCH2-; L‑6 = linker -CH2S(CH2)3SCH2-; L‑4 = linker -CH2SCH2SCH2-

Tests used:
[1] = target: T1, GST-Shh (recombinant GST-fused human Sonic Hedgehog) (human, UniProt Q15465 24-197); assay: plate assay: immobilized GST-Shh, biotinylated peptide, HRP-streptavidin
T1 construct: Expressed in E. coli BL21(DE3), Ni-NTA purified, immobilized on microtiter plates; also called GST-fused Shh; not shown: glutathione-S-transferase (GST) containing a poly-histidine tag, from expression vector pET42b (Novagen); N-terminal fus
Protocol: (§1) Hh protein binding assay. Shh binding activity/affinity of the linear and cyclic peptides was measured using the immunoassay outlined in FIG. 4. For these experiments, GST-Shh was immobilized on 96-well microtiter plates (100 μL of 4 μM GST-Shh solution in PBS buffer), followed by blocking with bovine serum albumin. After washing, each well was incubated with 100 μL of purified FLAG-fused peptide at varying concentrations for 1 hour at room temperature. After washing, each well was added with 100 μL of 1:2500 dilution of HRP-conjugate mouse anti-FLAG polyclonal antibody (Sigma-Aldrich) for 1 hour at room temperature. After washing, 100 μL of 2.2 mM o-phenylenediamine dihydrochloride, 4.2 mM urea hydrogen peroxide, 100 mM dibasic sodium phosphate and 50 mM sodium citrate, pH 5.0 was added to each well, followed by measurement of the absorbance at 450 nm using a Tecan Infinite 1000 plate reader. Equilibrium dissociation constants (KD) were determined by fitting the dose-response curves (FIG. 5) to a 1:1 binding isotherm equation via non-linear regression using SigmaPlot.
For assessing the Shh binding affinity of the cysteine-crosslinked peptides described in Example 4, biotinylated variants of these peptides were prepared by introducing a biotin moiety to the N-terminal peptide of the peptide followed by a tetrapeptide (Gly-Ser-Gly-Ser) (SEQ ID NO: 72) spacer (i.e., peptides Biot-m5-s1 through Biot-m5-s10). The biotinylated peptides were tested in a modified variant of the Shh binding assay described in Example 1, where HRP-conjugated streptavidin is used instead of the HRP-conjugated anti-FLAG antibody.

[2] = target: T1, GST-Shh (recombinant GST-fused human …); assay: plate immunoassay: immobilized GST-Shh, FLAG-tagged peptide titrated, HRP anti-FLAG antibody, A450
Protocol: To measure the binding affinity of the peptides for Shh, an in vitro assay was established in which recombinant GST-fused Shh is immobilized on microtiter plates and then exposed to the FLAG-tagged peptide at varying concentrations. The Shh-bound peptide is then quantified colorimetrically (λ₄₅₀) using a horseradish peroxidase (HRP)-conjugated anti-FLAG antibody.
as §1, with “After washing, each well was added with 100 μL of 1:2500 dilution of HRP-conjugate mouse anti-FLAG polyclonal antibody (Sigma-Aldrich) for 1 hour at room temperature.” left out

[3] = target: T1, GST-Shh (recombinant GST-fused human …); assay: plate immunoassay: immobilized GST-Shh, purified FLAG-tagged peptide titrated, HRP anti-FLAG antibody
Protocol: as §1
(§2) Next, all of the yet unmodified positions within the HL2-m3 sequence (relative to HL2-m1) were randomized by site-saturation mutagenesis. These positions correspond to residue Thr1, Leu2, Asp3, Glu6, Glu7, Met8, Asp12 of the HL2-m3 sequence. […]

[4] = target: T1, GST-Shh (recombinant GST-fused human …); assay: plate immunoassay: immobilized GST-Shh, HRP anti-FLAG antibody
Protocol: as §1, §2

[5] = target: T2, GST-Dhh (recombinant GST-fused human Desert Hedgehog) (human, UniProt O43323 23-198); assay: plate immunoassay: immobilized GST-Dhh against GST-Shh, HRP anti-FLAG antibody
T2 construct: not shown: glutathione-S-transferase (GST) containing a poly-histidine tag, from expression vector pET42b (Novagen); N-terminal fus
Protocol: as §1
Hedgehog analog selectivity. KD values for FLAG-HL2-m5 binding to Ihh and Dhh were determined using the colorimetric immunoassay described earlier but using GST-Ihh and GST-Dhh-coated plates, respectively. […] Mean values and standard deviations were calculated from experiments performed at least in triplicate.

B1: BIOT-M5-S7 (as labelled in the KD table of Example 5) (peptide)
peptide: GSGSTLSWCEAMDMCTD
modifications: N-terminal biotin; Cys5 and Cys11 crosslinked, by the printed MW 2121.41 with one of the isomeric linkers L-10, L-11, L-12 (drawings; probably L-11); C-terminal amide
notes: it fits the xylene-type linkers
B1 showed a Kd [1] of 9.2 µM.

In the case of Biotin-GSGSTLSWCEAMDMCTD-NH2 (linker 9-15 via L‑5) [Biot-m5-s3], the Kd [1] is reported as 5.9 µM.

Work on Biotin-GSGSTLSWCEAMDMCTD-NH2 (linker 9-15 via L‑6) [Biot-m5-s4] yielded a Kd [1] of 6.4 µM.

Binder MDYKDDDDKGSGSTLDDMEEMDGLSD (also called linear L2-derived peptide) [FLAG-HL2-pep] has a Kd [2] of 20 µM.

Binder Biotin-GSGSTLSWCEAMDMCTD-NH2 (disulfide 9-15) [Biot-m5-s1] has a Kd [1] of 1.7 µM.

Biotin-GSGSTLSWCEAMDMCTD-NH2 (linker 9-15 via L‑9) [BIOT-M5-S5 (as labelled in the KD table of Example 5)] was tested, and the Kd [1] was 1.1 µM.

In the case of MDYKDDDDKGSGSTLSW[O2beY]EAMDMCTD-OH (bridge 18-24; not fully specified (bridges)) [FLAG-HL2-m5], the Kd [3] is reported as 0.17 µM, the “fold higher binding affinity for Shh compared to FLAG-HL2-pep” value [4] is reported as ~120 fold and the “fold lower affinity than for Shh” value [5] is reported as 2 fold.

For Biotin-GSGSTLSWCEAMDMCTD-NH2 (linker 9-15 via L‑4) [Biot-m5-s2], the Kd [1] was 3.4 µM.
